Data from CN110954697A.

Key:
[1] = biological target: 抗PD-1单链抗体与IgG4Fc片段融合蛋白 (anti-PD-1 scFv-IgG4 Fc fusion secreted by Meso3CAR-T-antiPD1 cells); assay: flow cytometry on Meso3CAR-T-antiPD1 cells; 2 μL PE-labelled anti-IgG4 Fc antibody, read directly (these cells also carry Meso3CAR with an IgG4 CH2CH3 hinge)
[2] = biological target: 抗PD-1单链抗体与IgG4Fc片段融合蛋白 (anti-PD-1 scFv-IgG4 Fc fusion secreted by Meso3CAR-T-antiPD1 cells); assay: flow cytometry on Meso3CAR-T-antiPD1 cells; 2 μL of 1 mg/mL biotin-labelled reagent, streptavidin-PE

Chain of 抗PD-1单链抗体与IgG4Fc片段融合蛋白 (anti-PD-1 scFv-IgG4 Fc fusion secreted by Meso3CAR-T-antiPD1 cells) (chain, as listed by the source): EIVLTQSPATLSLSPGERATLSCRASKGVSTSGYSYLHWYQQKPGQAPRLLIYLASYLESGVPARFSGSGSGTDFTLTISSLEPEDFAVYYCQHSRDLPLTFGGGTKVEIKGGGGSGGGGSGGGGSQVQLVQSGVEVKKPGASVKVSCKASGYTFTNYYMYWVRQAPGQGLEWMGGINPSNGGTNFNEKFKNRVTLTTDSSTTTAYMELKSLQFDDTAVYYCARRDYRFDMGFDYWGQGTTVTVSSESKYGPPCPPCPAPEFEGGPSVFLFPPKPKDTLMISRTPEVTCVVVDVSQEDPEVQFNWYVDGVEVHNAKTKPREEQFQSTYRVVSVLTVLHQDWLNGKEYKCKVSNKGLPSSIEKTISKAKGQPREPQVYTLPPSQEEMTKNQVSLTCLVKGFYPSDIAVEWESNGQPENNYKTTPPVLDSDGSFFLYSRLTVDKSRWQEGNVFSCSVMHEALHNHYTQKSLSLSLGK

Row | 阳性率 (percent positive cells) [1] | 阳性细胞的比例 (percent positive cells) [2] | Substance
1 | 39.9% |  | PE标记的抗IgG4Fc抗体 (PE-labelled anti-IgG4 Fc antibody), Abcam, 货号 ab99825
2 |  | 31.6% | 抗PD-1抗体的抗体 (antibody against the anti-PD-1 antibody), 金斯瑞 GenScript, 货号 A01853-40, biotin-labelled
